Assay results from PMC5996891, “Staphylococcus aureus Phenol-Soluble Modulins α1–α3 Act as Novel Toll-Like Receptor (TLR) 4 Antagonists to Inhibit HMGB1/TLR4/NF-κB Signaling Pathway” (Frontiers in Immunology, 2018).

B1: recombinant disulfide HMGB1 protein (natural protein)
chain: MGKGDPKKPRGKMSSYAFFVQTCREEHKKKHPDASVNFSEFSKKCSERWKTMSAKEKGKFEDMAKADKARYEREMKTYIPPKGETKKKFKDPNAPKRPPSAFFLFCSEYRPKIKGEHPGLSIGDVAKKLGEMWNNTAADDKQPYEKKAAKLKEKYEKDIAAYRAKGKPDAAKKGVVKAEKSKKKKEEEEDEEDEEDEEEEEDEEDEDEEEDDDDE
modifications: disulfide bond between cysteines 23 and 45; reduced thiol on cysteine 106
notes: high mobility group box-1 protein; also called high mobility group box-1 protein; source: recombinant, provided by Kevin Tracey (The Feinstein Institute for Medical Research)

Assays:
[1] = molecular target: recombinant human TLR4 protein (ectodomain, Glu24-Lys631) (human) (UniProt O00206); assay: SPR; Biacore T200; TLR4 immobilised on a CM5 chip by amine coupling; HMGB1 or synthetic PSMs in 10 mM acetate buffer (pH 5.2) run over at gradient concentrations; 25°C, 30 µL/min; apparent KD
[2] = molecular target: T1, recombinant human TLR4 protein (ectodomain, Glu24-Lys631) (human, UniProt O00206 24-631); assay: as above; conditions: both partners purified
T1 construct: human toll-like receptor 4, Glu24-Lys631, the ectodomain with no transmembrane domain; followed by a C-terminal Ser and 10-His tag; also called hTLR4; toll-like receptor 4; source: bought: R&D Systems (Catalog Number 1478-TR); not shown: His10 (after a Ser), C-terminal, kept
T1 sequence (O00206 24-631): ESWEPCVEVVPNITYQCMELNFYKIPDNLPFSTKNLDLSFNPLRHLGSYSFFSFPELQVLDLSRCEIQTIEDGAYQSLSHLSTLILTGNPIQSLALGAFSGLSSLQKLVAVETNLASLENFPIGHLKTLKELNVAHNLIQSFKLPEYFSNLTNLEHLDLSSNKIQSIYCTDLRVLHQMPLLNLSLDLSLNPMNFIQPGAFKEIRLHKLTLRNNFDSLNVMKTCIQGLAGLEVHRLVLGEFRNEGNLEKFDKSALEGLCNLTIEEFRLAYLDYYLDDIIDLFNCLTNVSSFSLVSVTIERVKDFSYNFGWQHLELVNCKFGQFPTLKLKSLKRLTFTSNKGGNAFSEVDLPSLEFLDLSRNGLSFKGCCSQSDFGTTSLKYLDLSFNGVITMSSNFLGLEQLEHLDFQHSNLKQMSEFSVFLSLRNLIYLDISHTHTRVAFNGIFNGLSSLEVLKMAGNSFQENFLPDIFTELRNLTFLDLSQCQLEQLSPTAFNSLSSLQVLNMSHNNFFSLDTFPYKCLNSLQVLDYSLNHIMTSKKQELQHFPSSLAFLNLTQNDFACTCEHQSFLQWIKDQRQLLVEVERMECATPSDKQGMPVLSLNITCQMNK

Chain of recombinant human TLR4 protein (ectodomain, Glu24-Lys631) (human) (O00206 24-631): as above

Molecule	Kd [1] [µM]	Kd [2] [µM]
Staphylococcus aureus phenol-soluble modulin β1 (peptide)	3.79	–
Staphylococcus aureus phenol-soluble modulin α3 (peptide)	3	–
Staphylococcus aureus phenol-soluble modulin α2 (peptide)	3.24	–
Staphylococcus aureus phenol-soluble modulin β2 (peptide)	7.78	–
Staphylococcus aureus phenol-soluble modulin α1 (peptide)	3.81	–
B1	–	9.2
